For one data set, the system named is MC38 tumor cells. Format: in vivo, C57BL/6 mice. Particulars: two hours after intravenous 10 nmol DOTA, mice injected intratumorally with Sal-o-DBP. As for the experimental part: To determine the biodistribution of Sal-o-DBP, three groups of six-week old C57BL/6 mice were injected subcutaneously with 1×10^5 MC38 tumor cells. When tumors reached approximately 200 mm^3, the mice were injected intravenously or intratumorally with 1×10^7 CFU of Sal-o-DBP in 50 μL of saline, or intravenously with saline. Sixty hours after bacterial injection, mice were injected intraperitoneally (IP) with 100 mg arabinose in 400 μL saline. Sixty-six hours after bacterial injection mice were injected intravenously with 10 nmol DOTA in 50 μL of PBS. Two hours after DOTA injection, mouse tumors, spleens, livers, and kidneys were collected for biodistribution analysis. The organs were weighed before being homogenized in equal volumes of sterile PBS. Serial dilutions of the organ slurry were prepared (tumor 10^−5, spleen, liver, and kidney 10-2) and 50 μL of the dilutions were plated on LB agar plates containing 100 μg/mL carbenicillin and incubated overnight at 37° C. Colonies were counted and the total CFU/g was determined by the formula (colony count)×(dilution factor)[…].
To determine the biodistribution of DOTA, the organs were analyzed via inductively coupled plasma mass spectrometry (ICP-MS). Fifty μL of Iridium standard was added to each sample. The organ and water mixture was mixed with one mL of 3:1 nitric acid: hydrogen peroxide overnight. […]

For data set [1] the following is noted: cited from earlier work.

As to `O=C(O)CN1CCN(CC(=O)O)CCN(CC(=O)O)CCN(CC(=O)O)CC1` [DOTA, 2,2′,2″,2″′-(1,4,7,10-tetraazacyclododecane-1,4,7,10-tetrayl)tetraacetic acid], the “biodistribution of DOTA in tumor, liver, spleen, and kidney” value with MC38 tumor cells is “strong levels in the tumor and kidneys with some DOTA remaining in the liver and spleen”.

B1: 2D12.5: monoclonal anti-DOTA(radiometal) antibody / scFv, SEQ ID NO: 1 (protein)
scFv: QVKLQESGPGLVQPSQSLSITCTVSGFSLTDYGVHWVRQSPGKGLEWLGVIWSGGGTAYTAAFISRLNIYKDNSKNQVFFEMNSLQANDTAMYYCARRGSYPYNYFDVWGQGTTVTVSSGGGGSGGGGSGGGGSQAVVTQESALTTSPGETVTLTCRSSTGAVTTSNYANWVQEKPDHLFTGLIGGNNNRPPGVPARFSGSLIGDKAALTIAGTQTEDEAIYFCALWYSNHWVFGGGTRLTVLG
modifications: 2D12.5 scFv
Turning to B1, the “affinity for DOTA chelates of yttrium and lutetium” value in data set [1] (monoclonal anti-DOTA(radiometal) antibody) is on record as “low nanomolar affinity”. The Kd in data set [1] (pure scFv, DOTA-biotin-Y, read-out: binding kinetics of free 2D12.5 to DOTA-biotin-Y) was 3.7 nM.

The values above are taken from US20250312387A1, “BACTERIAL THERANOSTIC RADIOIMMUNOTHERAPY” (priority 2024, published 2025).
